These results are taken from paper doi:10.1101/2023.11.20.565808 (bioRxiv, 2023).

In the experiment the target is GST-fused RACK1, WT (human, UniProt P63244 1-317). Kind of experiment: pull-down.

B1: His6-YTHDF2, WT (FL) (natural protein)
chain: MSASSLLEQRPKGQGNKVQNGSVHQKDGLNDDDFEPYLSPQARPNNAYTAMSDSYLPSYYSPSIGFSYSLGEAAWSTGGDTAMPYLTSYGQLSNGEPHFLPDAMFGQPGALGSTPFLGQHGFNFFPSGIDFSAWGNNSSQGQSTQSSGYSSNYAYAPSSLGGAMIDGQSAFANETLNKAPGMNTIDQGMAALKLGSTEVASNVPKVVGSAVGSGSITSNIVASNSLPPATIAPPKPASWADIASKPAKQQPKLKTKNGIAGSSLPPPPIKHNMDIGTWDNKGPVAKAPSQALVQNIGQPTQGSPQPVGQQANNSPPVAQASVGQQTQPLPPPPPQPAQLSVQQQAAQPTRWVAPRNRGSGFGHNGVDGNGVGQSQAGSGSTPSEPHPVLEKLRSINNYNPKDFDWNLKHGRVFIIKSYSEDDIHRSIKYNIWCSTEHGNKRLDAAYRSMNGKGPVYLLFSVNGSGHFCGVAEMKSAVDYNTCAGVWSQDKWKGRFDVRWIFVKDVPNSQLRHIRLENNENKPVTNSRDTQEVPLEKAKQVLKIIASYKHTTSIFDDFSHYEKRQEEEESVKKERQGRGK
Regarding B1, the binding result is recorded as “binds”.
